Source: article PMC8260448

Target: thrombin (UniProt P00734;P00734 315-363;364-622)
Test: fluorescence polarization

GGTTGGTGTGGTTGG (structured_DNA, T3 replaced by 5-ethynyl-dU clicked to inactivated N-acyl sulfonamide 2b) [TBA(3)-2b] showed a Kd of 395 nM.
